This note sets out measurements from PMC11938383, “Antibodies targeting ADAM17 reverse neurite outgrowth inhibition by myelin-associated inhibitors” (Life Science Alliance, 2025).

The target of one series is p75-Fc (human) (UniProt P08138). Description: BLI; Blitz (Forte Bio); 5-mer complex (via Lingo-Fc) or p75-Fc loaded at 50 μg/ml on protein A sensors; ADAM17 ECD (E406A) or D+C in solution; HBS (20 mM Hepes, 150 mM NaCl pH 7.4); apparent KD.
For series [1], the target named is neuron-myelin 5-mer signaling complex (NgR1, Lingo-1-Fc, p75, MAG, GT1b-Na) (mouse | human) (UniProt Q9D1T0). The series is described as above.
Series [2] has as its target T1, neuronal receptor/co-receptor/p75 complex (Lingo-1-Fc, NgR1, p75, formed with GT1b-Na) (mouse | human, UniProt Q9D1T0 35-516; Q9BZR6 30-430; P08138 31-210).
T1 construct: Lingo-1, mouse, residues 35-516; NgR1, human, residues 30-430; p75, human, residues 31-210 (the version used in the pull-down assays); also called NgR1, Lingo-1, p75 complex; neuronal complex; source: assembled from purified HEK293 proteins on protein A-Sepharose in the presence of GT1b-Na; not shown: Fc, C-terminal, kept; Fc, C-terminal, cleaved; copies: + +
T1 sequence (looked up) 1: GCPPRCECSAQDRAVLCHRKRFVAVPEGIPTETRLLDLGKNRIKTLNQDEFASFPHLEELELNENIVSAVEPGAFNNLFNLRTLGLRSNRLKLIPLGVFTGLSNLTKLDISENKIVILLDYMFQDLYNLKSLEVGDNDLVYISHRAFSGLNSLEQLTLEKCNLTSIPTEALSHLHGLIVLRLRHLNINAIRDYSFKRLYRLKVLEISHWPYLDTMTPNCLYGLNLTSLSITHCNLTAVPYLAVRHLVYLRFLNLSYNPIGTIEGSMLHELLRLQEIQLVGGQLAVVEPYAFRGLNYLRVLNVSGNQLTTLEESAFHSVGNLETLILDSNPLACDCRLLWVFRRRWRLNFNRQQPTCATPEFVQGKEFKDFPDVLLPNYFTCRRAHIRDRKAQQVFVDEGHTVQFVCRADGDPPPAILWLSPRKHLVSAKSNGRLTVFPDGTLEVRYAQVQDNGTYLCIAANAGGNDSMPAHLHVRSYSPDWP
T1 sequence (looked up) 2: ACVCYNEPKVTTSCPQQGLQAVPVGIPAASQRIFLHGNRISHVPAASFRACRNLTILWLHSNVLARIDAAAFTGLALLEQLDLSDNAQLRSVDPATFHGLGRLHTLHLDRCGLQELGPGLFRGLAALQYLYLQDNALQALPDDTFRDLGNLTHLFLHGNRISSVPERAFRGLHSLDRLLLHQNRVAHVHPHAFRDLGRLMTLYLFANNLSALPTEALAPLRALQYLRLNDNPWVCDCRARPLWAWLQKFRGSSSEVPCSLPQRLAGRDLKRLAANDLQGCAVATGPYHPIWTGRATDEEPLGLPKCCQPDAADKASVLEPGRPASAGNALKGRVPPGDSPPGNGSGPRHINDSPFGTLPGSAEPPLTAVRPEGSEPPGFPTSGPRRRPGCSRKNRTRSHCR
T1 sequence (looked up) 3: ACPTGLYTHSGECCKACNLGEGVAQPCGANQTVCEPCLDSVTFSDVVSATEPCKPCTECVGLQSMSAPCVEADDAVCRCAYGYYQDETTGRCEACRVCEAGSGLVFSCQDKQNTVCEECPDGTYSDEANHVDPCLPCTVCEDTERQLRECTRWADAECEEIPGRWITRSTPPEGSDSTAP
Description: pull-down; Lingo-1-Fc as bait on protein A-Sepharose; untagged NgR1, p75 (31-210) and MAG as prey; NgR1 and p75 pre-incubated with GT1b-Na (molar ratio 1:10), with or without GT1b-Na; 10 mM Hepes pH 7.4, 150 mM NaCl, 0.05% Triton-X100; 25°C, 1 h; two washes; SDS-PAGE. The following applies: both partners purified.

Series [3] concerns the molecule itself. In words: SEC; individual proteins (Lingo-1, NgR1, p75 31-250) run alone on the SD-200 column, in the presence of GT1b-Na. (SEC sorts molecules by how far they enter the pores of the column.)
Series [4] concerns the target ADAM17 ectodomain (ECD), residues 215-650, active-site mutant E406A (human, UniProt P78536 215-650, E406A). In words: BLI.

Bounds are passed on as bounds.

Turning to “ADAM17 D+C (disintegrin + cysteine-rich domain region) (from UniProt P78536 474-646) (domain or fragment)”, the Kd (in the series with p75-Fc (human); in series [1]) was 350 nM throughout.

B1: MAG (residues 22-504) (domain or fragment, human, UniProt P20916 22-504, looked up)
chain: WGAWMPSSISAFEGTCVSIPCRFDFPDELRPAVVHGVWYFNSPYPKNYPPVVFKSRTQVVHESFQGRSRLLGDLGLRNCTLLLSNVSPELGGKYYFRGDLGGYNQYTFSEHSVLDIVNTPNIVVPPEVVAGTEVEVSCMVPDNCPELRPELSWLGHEGLGEPAVLGRLREDEGTWVQVSLLHFVPTREANGHRLGCQASFPNTTLQFEGYASMDVKYPPVIVEMNSSVEAIEGSHVSLLCGADSNPPPLLTWMRDGTVLREAVAESLLLELEEVTPAEDGVYACLAENAYGQDNRTVGLSVMYAPWKPTVNGTMVAVEGETVSILCSTQSNPDPILTIFKEKQILSTVIYESELQLELPAVSPEDDGEYWCVAENQYGQRATAFNLSVEFAPVLLLESHCAAARDTVQCLCVVKSNPEPSVAFELPSRNVTVNESEREFVYSERSGLVLTSILTLRGQAQAPPRVICTARNLYGAKSLELPFQ
notes: myelin-associated glycoprotein (MAG), human, residues 22-504; also called myelin-associated glycoprotein; source: HEK293, purified (protein A Sepharose, size-exclusion on SD-200); not shown: Fc, C-terminal, cleaved
As to B1, the binding result in series [2] was “binds”.

B2: Lingo-1 ectodomain (35-516) (domain or fragment, mouse, UniProt Q9D1T0 35-516, looked up)
chain: T1 sequence (looked up) 1
notes: Lingo-1 (LINGO-1), mouse, ectodomain, residues 35-516; Used in size-exclusion chromatography; It migrates as a tetramer; source: HEK293, purified (protein A Sepharose, size-exclusion on SD-200)
For B2, the “stoichiometry N” value in series [3] came out at 4.

B3: p75 ectodomain (residues 31-250) (domain or fragment, human, UniProt P08138 31-250, looked up)
chain: ACPTGLYTHSGECCKACNLGEGVAQPCGANQTVCEPCLDSVTFSDVVSATEPCKPCTECVGLQSMSAPCVEADDAVCRCAYGYYQDETTGRCEACRVCEAGSGLVFSCQDKQNTVCEECPDGTYSDEANHVDPCLPCTVCEDTERQLRECTRWADAECEEIPGRWITRSTPPEGSDSTAPSTQEPEAPPEQDLIASTVAGVVTTVMGSSQPVVTRGTTDN
notes: p75 (p75 NGF receptor), human, entire ectodomain, residues 31-250; Used in size-exclusion chromatography; migrates as an apparent dimer; One sentence of the methods prints 21-250 for this construct; also called longer version of p75; source: HEK293, purified (protein A Sepharose, size-exclusion on SD-200)
With B3, in series [3], the “stoichiometry N” value came out at 2.

B4: p75-Fc (Fc fusion)
chain: T1 sequence (looked up) 3
Molecule B4 displayed a Kd in series [4] of more than 10000 nM.

Usually stoichiometry N stands for a count of units in the complex or per binding partner.
